3 molecules from patent publication US20140370026A1 (TRUSTEES OF PRINCETON UNIVERSITY, published 2014) can be followed below.

B2: human CMV glycoprotein gO (UL74-coded) (other)
chain: KVMSKALYNRPWRGLVLSKIGKYKLDQLKLEILRQLETTISTKYNVSKQPVKNLTMNMTEFPQYYILAGPIQNYSITYLWFDFYSTQLRKPAKYVYSQYNHTAKTITFRPPPCGTVPSMTCLSEMLNVSKRNDTGEQGCGNFTTFNPMFFNVPRWNTKLYVGPTKVNVDSQTIYFLGLTALLLRYAQRNCTHSFYLVNAMSRNLFRVPKYINGTKLKNTMRKLKRKQAPVKEQFEKKAKKTQSTTTPYFSYTTSAALNVTTNVTYSITTAARRVSTSTIAYRPDSSFMKSIMATQLRDLATWVYTTLRYRQNPFCEPSRNRTAVSEFMKNTHVLIRNETPYTIYGTLDMSSLYYNETMFVENKTASDSNKTTPTSPSMGFQRTFIDPLWDYLDSLLFLDEIRNFSLRSPTYVNLTPPEHRRAVNLSTLNSLWWWLQ

Assay [1] has as its target T1, human CMV glycoprotein gM (UL100-coded) (human CMV, UniProt P16733 1-372).
T1 sequence: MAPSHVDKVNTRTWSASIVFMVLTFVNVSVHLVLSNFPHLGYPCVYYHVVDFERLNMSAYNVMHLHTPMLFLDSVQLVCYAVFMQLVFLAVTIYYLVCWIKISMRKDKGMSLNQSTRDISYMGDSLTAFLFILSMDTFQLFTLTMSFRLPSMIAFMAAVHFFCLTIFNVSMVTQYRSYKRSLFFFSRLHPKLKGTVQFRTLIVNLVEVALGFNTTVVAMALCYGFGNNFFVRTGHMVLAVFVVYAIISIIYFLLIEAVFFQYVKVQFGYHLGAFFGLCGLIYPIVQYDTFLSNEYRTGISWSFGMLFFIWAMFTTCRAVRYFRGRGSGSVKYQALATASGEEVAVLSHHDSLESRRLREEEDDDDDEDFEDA
Nature of the assay: co-immunoprecipitation with anti-gM IMP91-3/1.

Assay [2] addresses human CMV glycoprotein gH (UL75-coded) (human CMV, UniProt P12824 24-743). The experiment in a line: co-immunoprecipitation with anti-gH 14-4b.
The next assay has as its target T2, human CMV pUL130 (human CMV, UniProt P16772 26-214).
T2 construct: also called UL130 protein; 33- to 35-kDa protein
The experiment in a line: co-immunoprecipitation with anti-gO from radiolabeled infected MRC-5 lysates (FIG. 3A).

The target of assay [3] is B2. The assay is described as above.

B1: human CMV glycoprotein gN (UL73-coded) (other)
chain: NNSSTSTSATTSKSSASVSTTKLTTVATTSATTTTTTTLSTTSTKLSSTTHDPNVMRRHANDDFYKAHCTSHMYELSLSSFAAWWTMLNALILMGAFCIVLRHCCFQNFTATTTKGY
notes: also called ~60-kDa protein
On to B1, for which, in assay [1], the binding result is “binds”.

Take B2: the binding result in assay [2] is reported as “binds”; in the assay with human CMV pUL130, “no binding”.

B3: human CMV pUL128 (other)
chain: EECCEFINVNHPPERCYDFKMCNRFTVALRCPDGEVCYSPEKTAEIRGIVTTMTHSLTRQVVHNKLTSCNYNPLYLEADGRIRCGKVNDKAQYLLGAAGSVPYRWINLEYDKITRIVGLDQYLESVKKHKRLDVCRAKMGYMLQ
notes: also called UL128 protein; 16-kDa protein
With B3, the binding result in assay [3] is “no binding”.
